According to US20210324011A1 (University of Washington, published 2021):

T1: DHF119_C6_anchor
T1 construct: hexamer: avi-tag, monomer of designed hexamer 3H22, (GGS)5 linker, C cap of DHF119; also called anchor DHF119_C6
T1 chain: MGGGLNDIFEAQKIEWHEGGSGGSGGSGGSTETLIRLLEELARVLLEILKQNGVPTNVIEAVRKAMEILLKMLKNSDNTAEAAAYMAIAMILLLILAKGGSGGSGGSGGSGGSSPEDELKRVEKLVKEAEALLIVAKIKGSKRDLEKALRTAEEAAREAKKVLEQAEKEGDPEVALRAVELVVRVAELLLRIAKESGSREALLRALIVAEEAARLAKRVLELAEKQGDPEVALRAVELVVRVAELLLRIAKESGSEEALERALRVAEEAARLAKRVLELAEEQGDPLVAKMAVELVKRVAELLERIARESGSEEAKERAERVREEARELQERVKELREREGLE

B1: DHF119 (designed binder)
chain: MGPEDELKRVEKLVKEAEALLIVAKIKGSKRDLEKALRTAEEAAREAVKVLVQALLEGDPEVALRAVELVVRVAELLLRIAKESGSREALLRALIVAEEAAKLAKMVLELAEKQGDPEVALRAVELVVRVAELLLRIAKESGSEEALERALRVAEEAARLAKRVLELAEEQGDPLVAKMAVELVKRVAELLERIARESGSEEAKERAERVREEARELQERVKELREREGLE
notes: vector pET28b; forms a homo-polymer; cryoEM PDB 6E9Z
B2: DHF119-GFP (designed binder)
chain: B1 chain
notes: not shown: green fluorescent protein

Key:
[1] = biological target: T1, DHF119_C6_anchor; test: anchor on streptavidin-coated magnetic beads, microscopy
Source text: We sought to replicate this mechanism of control by designing multimeric anchor constructs, with multiple monomeric subunits held close to the relative orientations in the corresponding filaments by a fusion to designed homo-oligomers with the appropriate geometry (FIG. 14; one of the interaction interfaces is eliminated to restrict fiber growth in one direction). […] To study the kinetics of filament formation in vitro in more detail, we attached the anchors to glass slides, added monomers fused to yellow fluorescent protein (YFP) and monitored fiber formation by total internal reflection (TIRF) microscopy. The anchors seeded the rapid growth of multiple micron length fibers over 30 minutes (FIG. 4C; for analysis of growth kinetics of a second fiber see FIG. 15).

[2] = biological target: T1, DHF119_C6_anchor; test: TIRF microscopy over 30 minutes
Procedure: Filament Growth In Vitro. PEG-silane coated glass coverslips were attached to similarly-coated slides with strips of double-stick tape to make flow chambers. All incubations were at 25° C.
The background of the tif movies was subtracted using the software Fiji (29) with a ball radius of 5.0. The contrast was modified to reduce background noise to facilitate fiber identification. CellProfiler™ software (37) was used to identify and track fiber through the different time frames. The output files from CellProfiler™ provided the Major axis length for every fiber through all the movie.

Binder | binding result [1] | binding result [2]
B1 | binds | 
B2 |  | binds
